{"source": "paper PMC5532264", "proteins": {"B1": {"name": "DC-SIGN (CD209): N80A (protein)", "parent chain": "MSDSKEPRLQQLGLLEEEQLRGLGFRQTRGYKSLAGCLGHGPLVLQLLSFTLLAGLLVQVSKVPSSISQEQSRQDAIYQNLTQLKAAVGELSEKSKLQEIYQELTQLKAAVGELPEKSKLQEIYQELTRLKAAVGELPEKSKLQEIYQELTWLKAAVGELPEKSKMQEIYQELTRLKAAVGELPEKSKQQEIYQELTRLKAAVGELPEKSKQQEIYQELTRLKAAVGELPEKSKQQEIYQELTQLKAAVERLCHPCPWEWTFFQGNCYFMSNSQRNWHDSITACKEVGAQLVVIKSAEEQNFLQLQSSRSNRFTWMGLSDLNQEGTWQWVDGSPLLPSFKQYWNRGEPNNVGEEDCAEFSGNGWNDDKCNLAKFWICKKSAASCSRDEEQFLSPAPATPNPPPA"}}, "key": {"[1]": {"test": "linear fit to averaged AFM retraction FD-curves", "conditions": "glycan lost; control: untreated CHO-DC-SIGN-WT"}, "[2]": {"test": "AFM, tether rupture events per retraction", "conditions": "glycan lost; control: DC-SIGN-WT"}, "[3]": {"test": "cell surface expression by flow cytometry, CHO", "conditions": "glycan lost; control: DC-SIGN-WT"}}, "data": [{"protein": "B1", "values": [{"measurement": "other: adhesion-site elasticity (cell stiffening), fold_change", "setting": "[1]", "result": "decreases"}, {"measurement": "other: membrane tether formation", "setting": "[2]", "result": "no change"}, {"measurement": "expression_or_secretion", "setting": "[3]", "result": "no change"}]}]}
